Results published in patent US20040137581A1 (Xencor, published 2004).
Where two headings read alike, the source gives them in different places.

T1: type I interferon receptor (UniProt P17181 28-557; P48551 27-515, limits assumed)
T1 sequence (looked up) 1: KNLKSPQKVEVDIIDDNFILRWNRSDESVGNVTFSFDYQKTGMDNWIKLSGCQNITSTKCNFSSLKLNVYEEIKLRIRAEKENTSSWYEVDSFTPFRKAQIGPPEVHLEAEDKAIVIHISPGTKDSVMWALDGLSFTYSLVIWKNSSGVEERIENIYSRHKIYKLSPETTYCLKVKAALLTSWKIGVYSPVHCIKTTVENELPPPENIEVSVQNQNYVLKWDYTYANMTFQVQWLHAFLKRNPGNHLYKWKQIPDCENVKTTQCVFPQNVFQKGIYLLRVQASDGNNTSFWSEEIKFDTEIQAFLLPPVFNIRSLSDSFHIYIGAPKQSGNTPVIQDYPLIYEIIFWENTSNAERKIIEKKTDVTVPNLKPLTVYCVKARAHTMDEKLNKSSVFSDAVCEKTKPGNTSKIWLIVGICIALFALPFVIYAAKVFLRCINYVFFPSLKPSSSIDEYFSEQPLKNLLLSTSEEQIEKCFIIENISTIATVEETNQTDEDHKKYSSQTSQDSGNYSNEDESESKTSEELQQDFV
T1 sequence (looked up) 2: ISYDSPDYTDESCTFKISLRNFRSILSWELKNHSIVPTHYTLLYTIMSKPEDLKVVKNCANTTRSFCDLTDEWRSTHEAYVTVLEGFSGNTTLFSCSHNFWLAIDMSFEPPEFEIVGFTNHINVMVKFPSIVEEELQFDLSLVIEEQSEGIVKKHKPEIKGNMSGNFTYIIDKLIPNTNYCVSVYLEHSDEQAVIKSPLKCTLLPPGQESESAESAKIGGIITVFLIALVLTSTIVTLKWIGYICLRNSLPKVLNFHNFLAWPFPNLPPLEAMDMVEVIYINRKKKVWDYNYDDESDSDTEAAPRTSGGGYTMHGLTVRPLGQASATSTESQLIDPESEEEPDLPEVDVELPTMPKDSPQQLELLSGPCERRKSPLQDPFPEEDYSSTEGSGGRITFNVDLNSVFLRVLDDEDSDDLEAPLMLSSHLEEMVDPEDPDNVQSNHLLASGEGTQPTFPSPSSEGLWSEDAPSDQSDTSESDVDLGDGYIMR


Assays:
[1] = molecular target: T1, type I interferon receptor; experiment: cell-based or functional assay
[2] = molecular target: T1, type I interferon receptor; experiment: cell-based or functional assay; remark: listed apart in the source

Row | EC50, ISRE-luciferase reporter assay in 293T cells [1] | EC50 wt/EC50 var, ISRE-luciferase reporter assay in 293T cells [1] [ratio] | EC50, ISRE-luciferase reporter assay in 293T cells [2] [ng/mL] | EC50 wt/EC50 var, ISRE-luciferase reporter assay in 293T cells [2] [ratio] | Binder
1 | 5.31 ng/mL | 1 | 1.9 | 1 | IFN1_1 (ligand) MGSSHHHHHHSSGLVPRGSHMSYNLLGFLQRSSNFQSQKLLWQLNGRLEYCLKDRMNFDIPEEIKQLQQFQKEDAALTIYEMLQNIFAIFRQDSSSTGWNETIVENLLANVYHQINHLKTVLEEKLEKEDFTRGKLMSSLHLKRYYGRILHYLKAKEYSHCAWTIVRVEILRNFYFINRLTGYLRN
2 | 0.428 log ng/ml | 12.4 |  |  | IFB1_2 (ligand) MGSSHHHHHHSSGLVPRGSHMSYNQLGFLQRSSNFQSQKLLWQLNGRLEYCLKDRMNFDIPEEIKQLQQFQKEDAALTIYEMLQNIFAIFRQDSSSTGWNETIVENLLANVYHQINHLKTVLEEKLEKEDFTRGKLMSSLHLKRYYGRILHYLKAKEYSHCAWTIVRVEILRNFYFINRLTGYLRN
3 | 0.179 log ng/ml | 29.6 | 0.074 | 25.7 | IFB1_7 (ligand) MGSSHHHHHHSSGLVPRGSHMSYNQLGELQRSSNFQSQKLLWQLNGRLEYCLKDRMNFDIPEEIKQLQQFQKEDAALTIYEMLQNIFAIFRQDSSSTGWNETIVENLLANVYHQINHLKTVLEEKLEKEDFTRGKLMSSLHLKRYYGRILHYLKAKEYSHCAWTIVRVEILRNFYFINRLTGYLRN
4 | 0.319 log ng/ml | 16.6 |  |  | IFB1_15 (ligand) MGSSHHHHHHSSGLVPRGSHMSYNQLGELQRSSNFQSQKLLWQLNGRLEYCLKDRMNFDIPEEIKQLQQFQKEDAALTIYEMLQNIFAIFRQDSSSTGWNETIVENLLANVYHQINHLKTVLEEKLEKEDNTRGKLMSSLHLKRYYGRILHYLKAKEYSHCAWTIVRVEILRNFYFINRLTGYLRN
5 | 0.277 log ng/ml | 19.2 |  |  | IFB1_23 (ligand) MGSSHHHHHHSSGLVPRGSHMSYNQLGELQRSSNFQSQKLLWQLNGRLEYCLKDRMNFDIPEEIKQLQQFQKEDAALTIYEMLQNIFAIFRQDSSSTGWNETIVENLLANVYHQINHLKTVLEEKLEKEDFTRGKEMSSLHLKRYYGRILHYLKAKEYSHCAWTIVRVEILRNFYFINRLTGYLRN
6 | 0.294 log ng/ml | 18 |  |  | IFB1_36 (ligand) MGSSHHHHHHSSGLVPRGSHMSYNLLGELQRSSNFQSQKLLWQLNGRLEYCLKDRMNFDIPEEIKQLQQFQKEDAALTIYEMLQNIFAIFRQDSSSTGWNETIVENLLANVYHQINHLKTVLEEKLEKEDNTRGKEMSSLHLKRYYGRILHYLKAKEYSHCAWTIVRVEILRNFYFINRLTGYLRN
7 | 0.193 log ng/ml | 27.5 |  |  | IFB1_39 (ligand) MGSSHHHHHHSSGLVPRGSHMSYNQLGELQRSSNFQSQKLLWQLNGRLEYCLKDRMNFDIPEEIKQLQQFQKEDAALTIYEMLQNIFAIFRQDSSSTGWNETIVENLLANVYHQINHLKTVLEEKLEKEDNTRGKEMSSLHLKRYYGRILHYLKAKEYSHCAWTIVRVEILRNFYFINRLTGYLRN
8 | 0.24 log ng/ml | 22.1 |  |  | IFB1_64 (ligand) MGSSHHHHHHSSGLVPRGSHMSYNQLGELQRSSNFQSQKLLWQLNGRLEYCLKDRMNFDIPEEIKQKQQFQKEDAALTIYEMLQNIFAIFRQDSSSTGWNETIVENLLANVYHQINHLKTVLEEKLEKEDNTRGKEMSSRHLKRYYGRILHYLKAKEYSHCAWTIVRVEILRNFYFINRLTGYLRN
9 |  |  | 130 | 0.015 | IFB_GM2 (ligand) MGSSHHHHHHSSGLVPRGSHMSYNLLGFLQRSSNFQSQKLLWQLNGRLEYCLKDRMNFDIPEEIKQSQQSQKEDAALTIYEMLQNIFAIFRQDSSSTGWNETIVENLLANVYHQINHLKTVLEEKSEKEDSTRGKSMSSSHLKRYYGRILHYLKAKEYSHCAWTIVRVEILRNFYFINRLTGYLRN
